Consider 5 substances from PMC3864903.

In assay [1] the target is rNav1.4 voltage-gated sodium channel α subunit (rat) (UniProt P15390).
Assay [2] shares this target. This is another data set of the same source.
The target is the same in assay [3]. The source holds these as a separate data set.
The target is the same in assay [4]. The source holds these as a separate data set.

In assay [1], “rNavβ1 point mutant Y32A (from UniProt Q00954 19-218) (natural protein)” had an Activation V1/2 of sodium currents, two electrode voltage clamp, co-expression in oocytes of -34 mV and an Inactivation V1/2 (steady-state inactivation) of -56 mV. In assay [2], the Inactivation rate τ (inac) of the peak current at −20 mV is 0.48 ms and the Recovery from inactivation τ (slow) is 743 ms.

In assay [1], “rNavβ1 point mutant R89A (from UniProt Q00954 19-218) (natural protein)” gave an Activation V1/2 of sodium currents, two electrode voltage clamp, co-expression in oocytes of -33 mV and an Inactivation V1/2 (steady-state inactivation) of -62.6 mV. In assay [2], this substance came in with an Inactivation rate τ (inac) of the peak current at −20 mV of 2.6 ms, a Recovery from inactivation F (fast) of 0.92, a Recovery from inactivation τ (fast) of 2.3 ms and a Recovery from inactivation τ (slow) of 376 ms. Also, in assay [3], the Slowing of the current recovery after 1 ms, against WT β1 was found to be 90%.

In assay [1], “rNavβ1 voltage-gated sodium channel accessory subunit, wild type (from UniProt Q00954 19-218) (natural protein)” showed an Activation V1/2 of sodium currents, two electrode voltage clamp, co-expression in oocytes of -33.4 mV and an Inactivation V1/2 (steady-state inactivation) of -61.8 mV. In assay [2], this substance showed an Inactivation rate τ (inac) of the peak current at −20 mV of 0.6 ms, a Recovery from inactivation F (fast) of 0.93, a Recovery from inactivation τ (fast) of 1.7 ms and a Recovery from inactivation τ (slow) of 236 ms. This substance showed a Current recovery from inactivation after a recovery interval of 1 ms in assay [3] of 50%.

In assay [1], “rNavβ1 point mutant G33M (from UniProt Q00954 19-218) (natural protein)” registered an Activation V1/2 of sodium currents, two electrode voltage clamp, co-expression in oocytes of -32.5 mV and an Inactivation V1/2 (steady-state inactivation) of -56 mV. In assay [2], this substance registered an Inactivation rate τ (inac) of the peak current at −20 mV of 0.46 ms and a Recovery from inactivation τ (slow) of 760 ms.

In assay [1], “rNavβ1 point mutant C43A (from UniProt Q00954 19-218) (natural protein)” yielded an Activation V1/2 of sodium currents, two electrode voltage clamp, co-expression in oocytes of -29 mV and an Inactivation V1/2 (steady-state inactivation) of -59.1 mV. In assay [2], this substance displayed a Recovery from inactivation F (fast) of 0.89, a Recovery from inactivation τ (fast) of 2.7 ms and a Recovery from inactivation τ (slow) of 636 ms. In assay [3], the Slowing of the current recovery after 1 ms, against WT β1 came to 95%. Moreover, in assay [4], the Use-dependent current decline on repetitive depolarisations at 1 Hz (10% after the second pulse, cumulative rundown 20%) was 20% and the Use-dependent current rundown on repetitive depolarisations at 5 Hz (data not shown) came out at 20%.
